Experimental data as given in patent US20210371542A1.

Biological target: human glypican-3 (GPC3) on the cell surface (human), P51654
Test: cell-based or functional assay

lytic activity against Hep3B cells at E:T ratio of 5 (HCC patient-derived T cells): 30 to 70%
lytic activity against Hep3B cells at E:T ratio of 5 (HCC patient-derived T cells), average: 50%
lytic activity against Hep3B cells at E:T ratio of 5 (healthy donor-derived T cells), average: 90%
B1: CAR.hYP7 (GPC3-targeted chimeric antigen receptor with humanized YP7 scFv, CD8α hinge and TM, 4-1BB, CD3ζ) (protein)
chain: HMEVQLVESGGGLVQPGGSLRLSCAASGFTFNKNAMNWVRQAPGKGLEWVGRIRNKTNNYATYYADSVKARFTISRDDSKNSLYLQMNSLKTEDTAVYYCVAGNSFAYWGQGTLVTVSAGGGGSGGGGSGGGGSDIVMTQSPDSLAVSLGERATINCKSSQSLLYSSNQKNYLAWYQQKPGQPPKLLIYWASSRESGVPDRFSGSGSGTDFTLTISSLQAEDVAVYYCQQYYNYPLTFGQGTKLEIKTSTTTPAPRPPTPAPTIASQPLSLRPEACRPAAGGAVHTRGLDFACDIYIWAPLAGTCGVLLLSLVITKRGRKKLLYIFKQPFMRPVQTTQEEDGCSCRFPEEEEGGCELRVKFSRSADAPAYQQGQNQLYNELNLGRREEYDVLDKRRGRDPEMGGKPRRKNPQEGLYNELQKDKMAEAYSEIGMKGERRRGKGHDGLYQGLSTATKDTYDALHMQALPPR
